From US20210309732A1 (ELIXIRON IMMUNOTHERAPEUTICS HONG KONG, published 2021)

These binders were tested against T1, recombinant human GM-CSF (human, UniProt P04141 18-144) (assay: ELISA on coated rhGM-CSF, UBA relative to 1D2).
T1 construct: also called rhGM-CSF; CSF2
Source text: Some of the residues in the CDRs are essential for epitope binding affinity and/or specificity. A number of computational methods were developed to detect these functional residues, generally known as ‘specificity-determining resides’ (SDRs). […] Based on the analysis, 7 amino acid residues in VH and 3 amino acid residues in VL were selected as the SDRs. The residues are labeled X₁ to X₁₀ for the ease of reference. The SDRs on VH are: Heavy chain D31 (HD31) (X₁), HK32 (X₂), HK54(X₃), HR100 (X₄), HY102 (X₅), HY103 (X₆) and HQ105 (X₇). The SDRs on VL are Light chain V32 (LV32) (X₈), LP94 (X₉) and LV95 (X₁₀). The SDRs were subsequently mutated by site-directed mutagenesis to other amino acids to generate mutant VH or VL clones. HEK293 cells were co-transfected with a vector encoding a mutant VH paired with a vector encoding a wild type VL or a vector encoding a wild type VH paired with a vector encoding a mutant VL. The antibody clones were harvested from the culture medium. The binding affinity of each antibody clone to human GM-CSF was tested by ELISA. The ELISA was done according to the following procedures. ELISA plate was coated with 50 μl of rhGM-CSF at 1 μg/mL. The plate was washed with 200 μl PBST for three times, followed by blocking with 1% BSA for 1 hour at room temperature. The antibody clones to be tested were diluted at 1:12000. 100 μl of the diluted antibodies were added to the cell at 100 μl/well. The plate was incubated at room temperature for 1 hour. The plate was then washed and incubated with 1:5000 diluted goat-anti-human secondary antibody conjugated with HRP at room temperature for one hour. The ELISA assay was developed with 100 μl developing buffer containing H₂O₂-Amplx Red per well in the dark for 5 min and the fluorescence intensity was read at Ex.530/Em.590 nm, with cutoff at 570 nm. The Unit Binding Activity (UBA) of each sample was calculated as the fluorescence signal/antibody clone dilution factor.

T1 sequence (P04141 18-144 limits assumed): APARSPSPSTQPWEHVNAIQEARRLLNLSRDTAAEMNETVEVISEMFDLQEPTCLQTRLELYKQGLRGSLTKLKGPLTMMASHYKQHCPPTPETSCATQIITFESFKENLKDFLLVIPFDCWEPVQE

binding affinity % of 1D2	Binder
94%	1D2 SDR mutant HK32E (antibody, IgG1, V domains shown, also called X2 E) VH: QVQLVQSGAEVKKPGASVKVSCEASGYTFTDEYLHWVRQAPGQGLEWMAWINPKSGGTFYAQNFKGRVTVTRDTSINTAYLELTSLRLDDTSTYYCARGRDYYDQGAADLWGQGTMVTVSS VL: DIQLTQSPSSLSASVGDRVTITCRASQGINSVLAWYQQKPGKAPKLLLYAASKLESGVPSRFSGSGSGTDYTLTISSLQPEDFGTYYCQQYYSPVRTFGQGTKVEIKR
61%	1D2 SDR mutant HK32A (antibody, IgG1, V domains shown, also called X2 A) VH: QVQLVQSGAEVKKPGASVKVSCEASGYTFTDAYLHWVRQAPGQGLEWMAWINPKSGGTFYAQNFKGRVTVTRDTSINTAYLELTSLRLDDTSTYYCARGRDYYDQGAADLWGQGTMVTVSS VL: DIQLTQSPSSLSASVGDRVTITCRASQGINSVLAWYQQKPGKAPKLLLYAASKLESGVPSRFSGSGSGTDYTLTISSLQPEDFGTYYCQQYYSPVRTFGQGTKVEIKR
90%	1D2 SDR mutant HK32D (antibody, IgG1, V domains shown, also called X2 D) VH: QVQLVQSGAEVKKPGASVKVSCEASGYTFTDDYLHWVRQAPGQGLEWMAWINPKSGGTFYAQNFKGRVTVTRDTSINTAYLELTSLRLDDTSTYYCARGRDYYDQGAADLWGQGTMVTVSS VL: DIQLTQSPSSLSASVGDRVTITCRASQGINSVLAWYQQKPGKAPKLLLYAASKLESGVPSRFSGSGSGTDYTLTISSLQPEDFGTYYCQQYYSPVRTFGQGTKVEIKR
63%	1D2 SDR mutant HK32F (antibody, IgG1, V domains shown, also called X2 F) VH: QVQLVQSGAEVKKPGASVKVSCEASGYTFTDFYLHWVRQAPGQGLEWMAWINPKSGGTFYAQNFKGRVTVTRDTSINTAYLELTSLRLDDTSTYYCARGRDYYDQGAADLWGQGTMVTVSS VL: DIQLTQSPSSLSASVGDRVTITCRASQGINSVLAWYQQKPGKAPKLLLYAASKLESGVPSRFSGSGSGTDYTLTISSLQPEDFGTYYCQQYYSPVRTFGQGTKVEIKR
72%	1D2 SDR mutant HD31W (antibody, IgG1, V domains shown, also called X1 W) VH: QVQLVQSGAEVKKPGASVKVSCEASGYTFTWKYLHWVRQAPGQGLEWMAWINPKSGGTFYAQNFKGRVTVTRDTSINTAYLELTSLRLDDTSTYYCARGRDYYDQGAADLWGQGTMVTVSS VL: DIQLTQSPSSLSASVGDRVTITCRASQGINSVLAWYQQKPGKAPKLLLYAASKLESGVPSRFSGSGSGTDYTLTISSLQPEDFGTYYCQQYYSPVRTFGQGTKVEIKR
44%	1D2 SDR mutant HD31T (antibody, IgG1, V domains shown, also called X1 T) VH: QVQLVQSGAEVKKPGASVKVSCEASGYTFTTKYLHWVRQAPGQGLEWMAWINPKSGGTFYAQNFKGRVTVTRDTSINTAYLELTSLRLDDTSTYYCARGRDYYDQGAADLWGQGTMVTVSS VL: DIQLTQSPSSLSASVGDRVTITCRASQGINSVLAWYQQKPGKAPKLLLYAASKLESGVPSRFSGSGSGTDYTLTISSLQPEDFGTYYCQQYYSPVRTFGQGTKVEIKR
86%	1D2 SDR mutant HK32C (antibody, IgG1, V domains shown, also called X2 C) VH: QVQLVQSGAEVKKPGASVKVSCEASGYTFTDCYLHWVRQAPGQGLEWMAWINPKSGGTFYAQNFKGRVTVTRDTSINTAYLELTSLRLDDTSTYYCARGRDYYDQGAADLWGQGTMVTVSS VL: DIQLTQSPSSLSASVGDRVTITCRASQGINSVLAWYQQKPGKAPKLLLYAASKLESGVPSRFSGSGSGTDYTLTISSLQPEDFGTYYCQQYYSPVRTFGQGTKVEIKR
71%	1D2 SDR mutant HD31V (antibody, IgG1, V domains shown, also called X1 V) VH: QVQLVQSGAEVKKPGASVKVSCEASGYTFTVKYLHWVRQAPGQGLEWMAWINPKSGGTFYAQNFKGRVTVTRDTSINTAYLELTSLRLDDTSTYYCARGRDYYDQGAADLWGQGTMVTVSS VL: DIQLTQSPSSLSASVGDRVTITCRASQGINSVLAWYQQKPGKAPKLLLYAASKLESGVPSRFSGSGSGTDYTLTISSLQPEDFGTYYCQQYYSPVRTFGQGTKVEIKR

More lines, now with the values behind:

Binder	binding affinity % of 1D2
1D2 SDR mutant HD31A (antibody, IgG1, V domains shown, also called X1 A) VH: QVQLVQSGAEVKKPGASVKVSCEASGYTFTAKYLHWVRQAPGQGLEWMAWINPKSGGTFYAQNFKGRVTVTRDTSINTAYLELTSLRLDDTSTYYCARGRDYYDQGAADLWGQGTMVTVSS VL: DIQLTQSPSSLSASVGDRVTITCRASQGINSVLAWYQQKPGKAPKLLLYAASKLESGVPSRFSGSGSGTDYTLTISSLQPEDFGTYYCQQYYSPVRTFGQGTKVEIKR	66%
1D2 SDR mutant HD31P (antibody, IgG1, V domains shown, also called X1 P) VH: QVQLVQSGAEVKKPGASVKVSCEASGYTFTPKYLHWVRQAPGQGLEWMAWINPKSGGTFYAQNFKGRVTVTRDTSINTAYLELTSLRLDDTSTYYCARGRDYYDQGAADLWGQGTMVTVSS VL: DIQLTQSPSSLSASVGDRVTITCRASQGINSVLAWYQQKPGKAPKLLLYAASKLESGVPSRFSGSGSGTDYTLTISSLQPEDFGTYYCQQYYSPVRTFGQGTKVEIKR	69%
1D2 SDR mutant HD31S (antibody, IgG1, V domains shown, also called X1 S) VH: QVQLVQSGAEVKKPGASVKVSCEASGYTFTSKYLHWVRQAPGQGLEWMAWINPKSGGTFYAQNFKGRVTVTRDTSINTAYLELTSLRLDDTSTYYCARGRDYYDQGAADLWGQGTMVTVSS VL: DIQLTQSPSSLSASVGDRVTITCRASQGINSVLAWYQQKPGKAPKLLLYAASKLESGVPSRFSGSGSGTDYTLTISSLQPEDFGTYYCQQYYSPVRTFGQGTKVEIKR	47%
1D2 SDR mutant HD31N (antibody, IgG1, V domains shown, also called X1 N) VH: QVQLVQSGAEVKKPGASVKVSCEASGYTFTNKYLHWVRQAPGQGLEWMAWINPKSGGTFYAQNFKGRVTVTRDTSINTAYLELTSLRLDDTSTYYCARGRDYYDQGAADLWGQGTMVTVSS VL: DIQLTQSPSSLSASVGDRVTITCRASQGINSVLAWYQQKPGKAPKLLLYAASKLESGVPSRFSGSGSGTDYTLTISSLQPEDFGTYYCQQYYSPVRTFGQGTKVEIKR	74%
1D2 SDR mutant HD31R (antibody, IgG1, V domains shown, also called X1 R) VH: QVQLVQSGAEVKKPGASVKVSCEASGYTFTRKYLHWVRQAPGQGLEWMAWINPKSGGTFYAQNFKGRVTVTRDTSINTAYLELTSLRLDDTSTYYCARGRDYYDQGAADLWGQGTMVTVSS VL: DIQLTQSPSSLSASVGDRVTITCRASQGINSVLAWYQQKPGKAPKLLLYAASKLESGVPSRFSGSGSGTDYTLTISSLQPEDFGTYYCQQYYSPVRTFGQGTKVEIKR	73%
1D2 SDR mutant HD31G (antibody, IgG1, V domains shown, also called X1 G) VH: QVQLVQSGAEVKKPGASVKVSCEASGYTFTGKYLHWVRQAPGQGLEWMAWINPKSGGTFYAQNFKGRVTVTRDTSINTAYLELTSLRLDDTSTYYCARGRDYYDQGAADLWGQGTMVTVSS VL: DIQLTQSPSSLSASVGDRVTITCRASQGINSVLAWYQQKPGKAPKLLLYAASKLESGVPSRFSGSGSGTDYTLTISSLQPEDFGTYYCQQYYSPVRTFGQGTKVEIKR	58%
1D2 SDR mutant HD31L (antibody, IgG1, V domains shown, also called X1 L) VH: QVQLVQSGAEVKKPGASVKVSCEASGYTFTLKYLHWVRQAPGQGLEWMAWINPKSGGTFYAQNFKGRVTVTRDTSINTAYLELTSLRLDDTSTYYCARGRDYYDQGAADLWGQGTMVTVSS VL: DIQLTQSPSSLSASVGDRVTITCRASQGINSVLAWYQQKPGKAPKLLLYAASKLESGVPSRFSGSGSGTDYTLTISSLQPEDFGTYYCQQYYSPVRTFGQGTKVEIKR	57%
1D2 SDR mutant HD31Q (antibody, IgG1, V domains shown, also called X1 Q) VH: QVQLVQSGAEVKKPGASVKVSCEASGYTFTQKYLHWVRQAPGQGLEWMAWINPKSGGTFYAQNFKGRVTVTRDTSINTAYLELTSLRLDDTSTYYCARGRDYYDQGAADLWGQGTMVTVSS VL: DIQLTQSPSSLSASVGDRVTITCRASQGINSVLAWYQQKPGKAPKLLLYAASKLESGVPSRFSGSGSGTDYTLTISSLQPEDFGTYYCQQYYSPVRTFGQGTKVEIKR	74%
1D2 SDR mutant HD31C (antibody, IgG1, V domains shown, also called X1 C) VH: QVQLVQSGAEVKKPGASVKVSCEASGYTFTCKYLHWVRQAPGQGLEWMAWINPKSGGTFYAQNFKGRVTVTRDTSINTAYLELTSLRLDDTSTYYCARGRDYYDQGAADLWGQGTMVTVSS VL: DIQLTQSPSSLSASVGDRVTITCRASQGINSVLAWYQQKPGKAPKLLLYAASKLESGVPSRFSGSGSGTDYTLTISSLQPEDFGTYYCQQYYSPVRTFGQGTKVEIKR	79%
1D2 SDR mutant HD31E (antibody, IgG1, V domains shown, also called X1 E) VH: QVQLVQSGAEVKKPGASVKVSCEASGYTFTEKYLHWVRQAPGQGLEWMAWINPKSGGTFYAQNFKGRVTVTRDTSINTAYLELTSLRLDDTSTYYCARGRDYYDQGAADLWGQGTMVTVSS VL: DIQLTQSPSSLSASVGDRVTITCRASQGINSVLAWYQQKPGKAPKLLLYAASKLESGVPSRFSGSGSGTDYTLTISSLQPEDFGTYYCQQYYSPVRTFGQGTKVEIKR	63%
